Changes are numbered by the printed parent chain. Names and notes keep the numbering of the source.

Assay [1] addresses T1, mouse Mcl-1 lacking its hydrophobic C-terminus (yeast 2-hybrid bait in pGBT-9) (mouse, UniProt P97287 1-307).
T1 construct: not shown: GAL4 domain of pGBT-9
As to the kind of experiment: yeast 2-hybrid screen.

Assay [2] concerns the target mouse dynein light chain 2 (DLC2) (mouse, UniProt Q9D0M5 1-89). In words: yeast 2-hybrid.

Chain of mouse dynein light chain 2 (DLC2) (Q9D0M5 whole entry): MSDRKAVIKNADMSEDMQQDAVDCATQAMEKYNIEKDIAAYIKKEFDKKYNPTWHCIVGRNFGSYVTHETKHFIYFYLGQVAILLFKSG
T1 sequence (P97287 1-307): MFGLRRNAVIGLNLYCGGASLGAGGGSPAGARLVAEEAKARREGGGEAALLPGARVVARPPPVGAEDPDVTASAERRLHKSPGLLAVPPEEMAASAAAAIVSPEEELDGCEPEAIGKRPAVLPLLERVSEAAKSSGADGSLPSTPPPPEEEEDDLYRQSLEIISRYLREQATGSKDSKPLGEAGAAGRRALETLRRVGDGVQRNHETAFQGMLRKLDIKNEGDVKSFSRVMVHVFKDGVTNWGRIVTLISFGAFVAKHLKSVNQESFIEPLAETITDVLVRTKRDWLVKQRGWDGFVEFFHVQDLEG

B1: Bmf (Bcl-2 modifying factor), mouse, wild-type, as used in the yeast 2-hybrid system (other)
chain: MEPPQCVEELEDDVFQSEDGEPGTQPGGLLSADLFAQSQLDCPLSRLQLFPLTHCCGPGLRPISQEDKATQTLSPASPSQGVMLPCGVTEEPQRLFYGNAGYRLPLPASFPAGSPLGEQPPEGQFLQHRAEVQIARKLQCIADQFHRLHTQQHQQNRDRAWWQVFLFLQNLALNRQENREGVGPW
notes: The clone first isolated with Mcl-1 as bait was a partial one lacking the 5' end; Mouse bmf was later subcloned as bait; also called the novel protein; not shown: GAL4 domain of the yeast 2-hybrid vector (pAD-GAL4-2.1 for the library clone, a pGBT-9 derivative for Bmf as bait); limi
For the molecule B1, the binding result in assay [1] is recorded as “binds”.

B2: Bmf AAA mutant (D67K68A69:>AAA) as tested in yeast (other)
chain: B1 chain with D67A, K68A
notes: Yeast construct of the mutant is not described further; also called AAA mutation; not shown: GAL4 domain of the yeast 2-hybrid vector
As for B2, the binding result in assay [2] is listed as “no binding”.

B3: Bmf A69P mutant as tested in yeast (other)
chain: B1 chain with A69P
notes: Yeast construct of the mutant is not described further; not shown: GAL4 domain of the yeast 2-hybrid vector
For the molecule B3, the binding result in assay [2] is “no binding”.
